Substitutions are numbered along the chain they refer to.

For 15 molecules, Kd, koff and kon results are on record in patent US20210070872A1 (AGENUS, published 2021).

In the assay the target is T1, biotinylated GITR (human, UniProt Q9Y5U5 26-161, limits assumed, biotinylated (sites not given)).
T1 construct: also called GITR-bio; Biotin-GITR
T1 sequence: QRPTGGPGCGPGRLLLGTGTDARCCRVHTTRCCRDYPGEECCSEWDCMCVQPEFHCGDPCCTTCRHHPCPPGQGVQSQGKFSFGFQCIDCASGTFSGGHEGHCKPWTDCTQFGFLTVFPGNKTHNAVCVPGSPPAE
Nature of the assay: BLI (Octet), biotin-GITR on streptavidin tips, antibody supernatant. As for the experimental part: Several hundred germlined antibodies were selected based on binding kinetics as determined by Octet measurements (Octet RED 96 system; ForteBio™ Inc., Menlo Park, Calif.). The experimental procedure was configured according to the instruction manual of the instrument. Biotin-GITR was bound to Streptavidin biosensor (SA) and PBS (pH 7.4) was used as a blank control. Briefly, the interaction analyses were conducted at 30° C. in running buffer (PBS, 0.05% Tween, pH7.4). Sensor tips were pre-wet for 10 minutes in running buffer immediately prior to use, and the micro plates used in the Octet were filled with 200 μl of sample or buffer per well and agitated at 800 rpm. For the experiments, commercially available precoated SA tips were used. Biotinylated GITR was loaded onto the ForteBio SA fibers in PBS pH7.4 for 10 minutes and washed for 4 minutes. For the association phase, the ligand-coated SA tips were immersed for 5 minutes in cell culture supernatant that was diluted 1:10 in running buffer prior to the measurement. Dissociation of the antibody-antigen complex was measured in wells containing the Octet buffer alone for 5 minutes. After each run, the tips were regenerated with Glycine (10 mM, pH 2.0). Affinity, Kₒₙ and Koff were determined with Octet evaluation software v6.3 using a 1:1 binding model with local full fitting.
(In general: In BLI a coated tip is dipped into the sample, and binding shifts an interference pattern.)

B1: germline variant antibody 39 (H1916D09 / K1916D09) (antibody, V domains shown)
VH: QVQLVQSGAEVKKPGASVKVSCKGSGYTFTGYAMHWVRQAPGQGLEWMGLIRTYSGGVSYNQKFRERATMTVDTSISTAYMELSRLRSDDTAVYYCAKSGTVRGFAYWGQGTLITVSS
VL: DIVMTQSPDSLAVSLGERATINCKSSQSLLNSSNQKNYLTWYQQKPGQPPKLLIYWASTRESGVPDRFTGSGSGTDFTLTISSVQAEDVAVYHCQNEYSFPYTFGQGTKLEIK
notes: IGHG1/IGKC expression vectors; measured from CHO culture supernatant; also called Antibody ID 39
As usually defined, the Kd is the equilibrium constant for the complex coming apart. The term koff denotes a measure of how fast the partners let go of each other. Higher therefore signals a short-lived complex. As usually defined, the kon is the second-order rate constant of association. B1 returned a Kd of 0.255 nM, a koff of 0.000997 s⁻¹ and a kon of 3.91e+06 M⁻¹ s⁻¹.

B2: germline variant antibody 35 (H1916D05 / K1916D05) (antibody, V domains shown)
VH: QVQLVQSGAEAKKPGASVKVSCKGSGYTFTGYAMYWVRQAPGQGMEWIGVIRTFSGDVTYNQKFRGRVTMTVDTSISTAYMELSRLRSDDTAVYYCAKSGTVRGFAYWGQGTLVTVSS
VL: B1 VL with S33G, Q43H, H93Y, E97D, F100Y
notes: IGHG1/IGKC expression vectors; measured from CHO culture supernatant; also called Antibody ID 35
Consider B2, for which the Kd was found to be 0.187 nM, the koff turned out to be 0.00024 s⁻¹ and the kon is 1.29e+06 M⁻¹ s⁻¹.

B3: germline variant antibody 95 (H1917G05 / K1917G05) (antibody, V domains shown)
VH: B1 VH with G31D, H35Y, E66G, A68V, L113F, I114V
VL: B1 VL with S33G, L52M, T69S, E97D
notes: IGHG1/IGKC expression vectors; measured from CHO culture supernatant; also called Antibody ID 95
In turn, B3 registered a Kd of 2.21 nM, a koff of 0.000672 s⁻¹ and a kon of 305000 M⁻¹ s⁻¹.

B4: germline variant antibody 76 (H1917C10 / K1917C10) (antibody, V domains shown)
VH: B1 VH with E10G, G31D, Y54F, G57D, T74K, I114V
VL: B1 VL with S33G, T40S, L52M, T69S, E97D
notes: IGHG1/IGKC expression vectors; measured from CHO culture supernatant; also called Antibody ID 76
In the case of B4, binding was put at a Kd of 2.72 nM, the koff worked out at 0.00105 s⁻¹ and the kon is 386000 M⁻¹ s⁻¹.

B5: germline variant antibody 68 (H1917B01 / K1917B01) (antibody, V domains shown)
VH: B2 VH with A9T, A11V, M45L, V50L, F54Y, D57G
VL: B1 VL with S33G, L52M, V84L, H93Y, E97D, F100Y
notes: IGHG1/IGKC expression vectors; measured from CHO culture supernatant; also called Antibody ID 68
B5 came in with a Kd of 1.55 nM, a koff of 0.000447 s⁻¹ and an association rate constant (kon) of 289000 M⁻¹ s⁻¹.

B6: germline variant antibody 101 (H1917H01 / K1917H01) (antibody, V domains shown)
VH: B1 VH with G24A, G31D, Y54F, R65Q, E66D, A68V, T74K, I114V
VL: B1 VL with Q43H, T69S, E97D
notes: IGHG1/IGKC expression vectors; measured from CHO culture supernatant
B6 returned a Kd of 0.354 nM, a koff of 0.000332 s⁻¹ and a kon of 936000 M⁻¹ s⁻¹.

B7: germline variant antibody 79 (H1917D04 / K1917D04) (antibody, V domains shown)
VH: B1 VH with A9T, G31E, L45M, S59T, A68V, T74K, I114V
VL: B1 VL with S33G, Q43H, L52M, T69S, V84L, H93Y, E97D, F100Y
notes: IGHG1/IGKC expression vectors; measured from CHO culture supernatant; also called Antibody ID 79
In turn, B7 came in with a Kd of 2.87 nM, an off-rate constant (koff) of 0.00129 s⁻¹ and a kon of 450000 M⁻¹ s⁻¹.

B8: germline variant antibody 59 (H1916G05 / K1916G05) (antibody, V domains shown)
VH: B1 VH with G24A, G31E, H35Y, E66D, A68V, T74K, I114V
VL: B1 VL with T40S, Q43H, T69S, E97D, F100Y
notes: IGHG1/IGKC expression vectors; measured from CHO culture supernatant; also called Antibody ID 59
For the molecule B8, binding was put at a Kd of 1.04 nM, the off-rate constant (koff) was found to be 0.000312 s⁻¹ and the kon was determined as 299000 M⁻¹ s⁻¹.

B9: germline variant antibody 50 (H1916F03 / K1916F03) (antibody, V domains shown)
VH: B1 VH with A9T, G24A, G31D, H35Y, M48I, Y54F, R65K, A68V, T74K, I114V
VL: B1 VL with L52M, T69S, V84L, H93Y, E97D, F100Y
notes: IGHG1/IGKC expression vectors; measured from CHO culture supernatant; also called Antibody ID 50
Turning to B9, the affinity, expressed as Kd, was 1.01 nM; the koff came to 0.000254 s⁻¹; the kon was 252000 M⁻¹ s⁻¹.

B10: germline variant antibody 86 (H1917E03 / K1917E03) (antibody, V domains shown)
VH: B2 VH with A11V, G31E, I48M, F54Y, D57G, G66D, V68A
VL: B1 VL with S33G, Q43H, T69S, H93Y, E97D, F100Y
notes: IGHG1/IGKC expression vectors; measured from CHO culture supernatant; also called Antibody ID 86
For B10, binding was put at a Kd of 0.75 nM, the koff worked out at 0.000432 s⁻¹ and the kon worked out at 577000 M⁻¹ s⁻¹.

B11: germline variant antibody 54 (H1916F09 / K1916F09) (antibody, V domains shown)
VH: B1 VH with G24A, G31E, R65Q, E66G, I114V
VL: B1 VL with E97D
notes: IGHG1/IGKC expression vectors; measured from CHO culture supernatant; also called Antibody ID 54
The molecule B11 registered a Kd of 1.26 nM, a koff of 0.000688 s⁻¹ and a kon of 548000 M⁻¹ s⁻¹.

B12: germline variant antibody 52 (H1916F05 / K1916F05) (antibody, V domains shown)
VH: B1 VH with A9T, G31D, H35Y, A68V, T74K, I114V
VL: B1 VL with S33G, T69S, V84L, E97D
notes: IGHG1/IGKC expression vectors; measured from CHO culture supernatant; also called Antibody ID 52
In turn, B12 displayed a Kd of 1.07 nM, a koff of 0.000426 s⁻¹ and a kon of 397000 M⁻¹ s⁻¹.

B13: germline variant antibody 102 (H1917H02 / K1917H02) (antibody, V domains shown)
VH: B2 VH with A9T, A11V, G24A, M45L, F54Y, D57G, T59S, G66D
VL: B1 VL with T40S, H93Y, E97D, F100Y
notes: IGHG1/IGKC expression vectors; measured from CHO culture supernatant; also called Antibody ID 102
Consider B13, for which the Kd is 1.97 nM, the koff was 0.000632 s⁻¹ and the kon came out at 321000 M⁻¹ s⁻¹.

B14: germline variant antibody 92 (H1917F05 / K1917F05) (antibody, V domains shown)
VH: B1 VH with G31E, H35Y, Y54F, S59T, R65Q, E66G, R87Q, I114V
VL: B1 VL with S33G, Q43H, L52M, T69S, D76N, E97D, F100Y
notes: IGHG1/IGKC expression vectors; measured from CHO culture supernatant; also called Antibody ID 92
B14 had a Kd of 1.01 nM, a koff of 0.000361 s⁻¹ and a kon of 357000 M⁻¹ s⁻¹.

B15: germline variant antibody 96 (H1917G06 / K1917G06) (antibody, V domains shown)
VH: B2 VH with A11V, G31E, I48M, F54Y, D57G, V58L, G66D
VL: B1 VL with T40S, Q43H, T69S, V84L, E97D, F100Y
notes: IGHG1/IGKC expression vectors; measured from CHO culture supernatant; also called Antibody ID 96
For B15, the Kd came to 1.09 nM, the koff is 0.000373 s⁻¹ and the kon came out at 344000 M⁻¹ s⁻¹.
